Test results taken from the Immune Epitope Database (IEDB).

How the values were obtained:
HLA-B*51:01 = test: IEDB peptide-MHC binding, purified MHC/direct/fluorescence; filed as Kd, often an IC50 or EC50 that approximates it; ≥ and ≤ were set here for values at or beyond the usual limits of such assays; details: source organism: Baboon gamma-herpesvirus
HLA-B*07:02 [1] = test: IEDB peptide-MHC binding, purified MHC/competitive/fluorescence; filed as Kd, often an IC50 or EC50 that approximates it; ≥ and ≤ were set here for values at or beyond the usual limits of such assays
HLA-A*02:01 = test: IEDB peptide-MHC binding, purified MHC/direct/fluorescence; filed as Kd, often an IC50 or EC50 that approximates it; ≥ and ≤ were set here for values at or beyond the usual limits of such assays
HLA-A*02:03 = test: as above; details: source organism: Variola virus
HLA-C*03:03 = test: as above
HLA-A*69:01 = test: as above
HLA-A*31:01 [2] = test: IEDB peptide-MHC binding, purified MHC/competitive/fluorescence; filed as Kd, often an IC50 or EC50 that approximates it; ≥ and ≤ were set here for values at or beyond the usual limits of such assays; details: source organism: Variola virus
HLA-C*07:02 = test: IEDB peptide-MHC binding, purified MHC/direct/fluorescence; filed as Kd, often an IC50 or EC50 that approximates it; ≥ and ≤ were set here for values at or beyond the usual limits of such assays
HLA-A*68:02 = test: IEDB peptide-MHC binding, purified MHC/competitive/fluorescence; filed as Kd, often an IC50 or EC50 that approximates it; ≥ and ≤ were set here for values at or beyond the usual limits of such assays; details: source organism: Human immunodeficiency virus 1
HLA-B*44:02 = test: IEDB peptide-MHC binding, purified MHC/direct/fluorescence; filed as Kd, often an IC50 or EC50 that approximates it; ≥ and ≤ were set here for values at or beyond the usual limits of such assays
HLA-B*40:01 = test: as above; details: source organism: Influenza A virus (A/Turkey/MO/24093/99(H1N2))
HLA-B*18:01 = test: as above; details: source organism: Influenza A virus (A/Turkey/MO/24093/99(H1N2))
HLA-B*45:06 = test: IEDB peptide-MHC binding, purified MHC/competitive/fluorescence; filed as Kd, often an IC50 or EC50 that approximates it; ≥ and ≤ were set here for values at or beyond the usual limits of such assays; details: source organism: Influenza A virus (A/Fort Monmouth/1/1947-mouse adapted(H1N1))
HLA-B*15:42 = test: as above; details: source organism: Influenza A virus (A/Fort Monmouth/1/1947-mouse adapted(H1N1))
HLA-B*83:01 = test: as above; details: source organism: Influenza A virus (A/Fort Monmouth/1/1947-mouse adapted(H1N1))
HLA-A*26:01 = test: IEDB peptide-MHC binding, purified MHC/direct/fluorescence; filed as Kd, often an IC50 or EC50 that approximates it; ≥ and ≤ were set here for values at or beyond the usual limits of such assays; details: source organism: Yersinia pestis
HLA-B*35:01 = test: as above; details: source organism: Yersinia pestis
HLA-A*11:01 = test: as above; details: source organism: Yersinia pestis
HLA-B*15:01 = test: as above; details: source organism: Yersinia pestis
HLA-A*31:01 [3] = test: as above; details: source organism: Yersinia pestis
HLA-A*03:01 = test: as above; details: source organism: Yersinia pestis
HLA-B*07:02 [4] = test: as above; details: source organism: Yersinia pestis
HLA-B*08:01 = test: as above; details: source organism: Yersinia pestis
HLA-A*01:01 = test: as above; details: source organism: Yersinia pestis
HLA-B*27:05 = test: as above; details: source organism: Yersinia pestis
HLA-B*58:01 = test: as above; details: source organism: Yersinia pestis
[5] = source organism: Camelpox virus CMS
[6] = source organism: Yersinia pestis

VPGSETMCY
Kd (HLA-B*51:01): ≥ 20 µM
Kd (HLA-B*07:02 [1]; source organism: human gammaherpesvirus 4): ≥ 20 µM

PPKYTPRPA
Kd (HLA-B*07:02 [1]; source organism: Escherichia coli 536): ≥ 20 µM

HMIDKLFYV
Kd (HLA-A*02:01; [5]): ≤ 0.001 µM
Kd (HLA-A*02:03): ≤ 0.001 µM
Kd (HLA-C*03:03; source organism: Variola virus): 0.787 µM
Kd (HLA-A*69:01; [5]): 0.002 µM
Kd (HLA-A*31:01 [2]): 0.0215 µM

LYNTVAVLY
Kd (HLA-C*07:02; source organism: Human immunodeficiency virus 1): ≥ 20 µM
Kd (HLA-A*68:02): ≥ 20 µM

FYYNAFHWA
Kd (HLA-C*07:02; source organism: Homo sapiens): 0.813 µM

MQIRGFVYF
Kd (HLA-C*07:02; source organism: Influenza A virus (A/Fort Monmouth/1/1947-mouse adapted(H1N1))): ≥ 20 µM
Kd (HLA-B*44:02; source organism: Influenza A virus (A/Turkey/MO/24093/99(H1N2))): ≥ 20 µM
Kd (HLA-B*40:01): ≥ 20 µM
Kd (HLA-B*18:01): 0.119 µM
Kd (HLA-B*45:06): ≥ 5 µM
Kd (HLA-B*15:42): ≥ 5 µM
Kd (HLA-B*83:01): ≥ 5 µM

YGIPFPGSL
Kd (HLA-A*02:01; [6]): 14.3 µM
Kd (HLA-A*26:01): ≥ 20 µM
Kd (HLA-B*35:01): 0.12 µM
Kd (HLA-A*11:01): ≥ 20 µM
Kd (HLA-B*44:02; [6]): ≥ 20 µM
Kd (HLA-C*03:03; source organism: Yersinia pestis Nepal516): ≤ 0.001 µM
Kd (HLA-A*69:01; [6]): ≥ 20 µM
Kd (HLA-B*15:01): ≥ 20 µM
Kd (HLA-A*31:01 [3]): ≥ 20 µM
Kd (HLA-A*03:01): ≥ 20 µM
Kd (HLA-B*07:02 [4]): 9.76 µM
Kd (HLA-B*08:01): ≥ 20 µM
Kd (HLA-A*01:01): ≥ 20 µM
Kd (HLA-B*27:05): ≥ 20 µM
Kd (HLA-B*58:01): ≥ 20 µM
